In data set [1] the target is recombinant aggrecan G1G2, P16112.
Data set [2] concerns the target natural type aggrecan (mfd. by Seikagaku Kogyo).

recombinant aggrecan G1G2, P16112, sequence (P16112 20-675): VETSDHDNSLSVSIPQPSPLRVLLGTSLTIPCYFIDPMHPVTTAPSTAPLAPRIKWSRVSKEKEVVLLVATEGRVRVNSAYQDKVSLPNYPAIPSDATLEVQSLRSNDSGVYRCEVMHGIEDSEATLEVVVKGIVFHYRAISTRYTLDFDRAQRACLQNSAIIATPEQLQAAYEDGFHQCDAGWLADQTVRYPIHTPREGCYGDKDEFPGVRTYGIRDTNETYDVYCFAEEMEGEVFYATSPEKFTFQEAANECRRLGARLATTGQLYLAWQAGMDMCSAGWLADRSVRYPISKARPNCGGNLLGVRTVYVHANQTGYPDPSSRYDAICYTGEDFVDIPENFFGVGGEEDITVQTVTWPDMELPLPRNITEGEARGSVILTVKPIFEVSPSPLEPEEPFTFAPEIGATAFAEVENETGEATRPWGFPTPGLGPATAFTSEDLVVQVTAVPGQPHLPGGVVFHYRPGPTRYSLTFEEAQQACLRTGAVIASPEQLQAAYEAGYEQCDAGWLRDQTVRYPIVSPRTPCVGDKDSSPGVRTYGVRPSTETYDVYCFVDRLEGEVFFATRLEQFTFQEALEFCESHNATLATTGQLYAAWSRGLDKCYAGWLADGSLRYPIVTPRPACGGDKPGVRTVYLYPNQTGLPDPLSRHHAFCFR

B1: MDTS6TSP1 protein (protein)
chain: FVSIPRYVETLVVADESMVKFHGADLEHYLLTLLATAARLYRHPSILNPINIVVVKVLLLRDRDSGPKVTGNAALTLRNFCAWQKKLNKVSDKHPEYWDTAILFTRQDLCGATTCDTLGMADVGTMCDPKRSCSVIEDDGLPSAFTTAHELGHVFNMPHDNVKVCEEVFGKLRANHMMSPTLIQIDRANPWSACSAAIITDFLDSGHGDCLLDQPSKPISLPEDLPGASYTLSQQCELAFGVGSKPCPYMQYCTKLWCTGKAKGQMVCQTRHFPWADGTSCGEGKLCLKGACVERHNLNKHRVDGSWAKWDPYGPCSRTCGGGVQLARRQCTNPTPANGGKYCEGVRVKYRSCNLEPCPSSASGKSFREEQ
Turning to B1, the “recombinant aggrecan G1G2 degrading activity (western blot, anti-His detection)” value in data set [1] is “degraded fragment of the recombinant aggrecan, which was not found in the control in which only the expression plasmid was introduced, was detected”.

B2: MDTS6Pro (protein)
chain: FVSIPRYVETLVVADESMVKFHGADLEHYLLTLLATAARLYRHPSILNPINIVVVKVLLLRDRDSGPKVTGNAALTLRNFCAWQKKLNKVSDKHPEYWDTAILFTRQDLCGATTCDTLGMADVGTMCDPKRSCSVIEDDGLPSAFTTAHELGHVFNMPHDNVKVCEEVFGKLRANHMMSPTLIQIDRANPWSACSAAIITDFLDSGHGDCLLDQPSKPISLPEDLPGASYTLSQQGSAAADYKDDDDK
Take B2: in data set [1], the “aggrecanase activity (method of Example 7-3, neoepitope western blot)” value (shortened to “aggrecanase activity”) is “the aggrecanase activity was not detected in the culture supernatants in which MDTS6Pro and MDTS6Dis were expressed”.

B3: MDTS6Dis (protein)
chain: FVSIPRYVETLVVADESMVKFHGADLEHYLLTLLATAARLYRHPSILNPINIVVVKVLLLRDRDSGPKVTGNAALTLRNFCAWQKKLNKVSDKHPEYWDTAILFTRQDLCGATTCDTLGMADVGTMCDPKRSCSVIEDDGLPSAFTTAHELGHVFNMPHDNVKVCEEVFGKLRANHMMSPTLIQIDRANPWSACSAAIITDFLDSGHGDCLLDQPSKPISLPEDLPGASYTLSQQCELAFGVGSKPCPYMQYCTKLWCTGKAKGQMVCQTRHFPWADGTSCGEGKLCLKGACVERHNLNKHRVDGSGSAAADYKDDDDK
Consider B3, for which the “aggrecanase activity” value in data set [1] was “the aggrecanase activity was not detected in the culture supernatants in which MDTS6Pro and MDTS6Dis were expressed”.

B4: MDTS6Cys (protein)
chain: FVSIPRYVETLVVADESMVKFHGADLEHYLLTLLATAARLYRHPSILNPINIVVVKVLLLRDRDSGPKVTGNAALTLRNFCAWQKKLNKVSDKHPEYWDTAILFTRQDLCGATTCDTLGMADVGTMCDPKRSCSVIEDDGLPSAFTTAHELGHVFNMPHDNVKVCEEVFGKLRANHMMSPTLIQIDRANPWSACSAAIITDFLDSGHGDCLLDQPSKPISLPEDLPGASYTLSQQCELAFGVGSKPCPYMQYCTKLWCTGKAKGQMVCQTRHFPWADGTSCGEGKLCLKGACVERHNLNKHRVDGSWAKWDPYGPCSRTCGGGVQLARRQCTNPTPANGGKYCEGVRVKYRSCNLEPCPSSASGKSFREEQCEAFNGYNHSTNRLTLAVAWVPKYSGVSPRDKCKLICRANGTGYFYVLAPKVVDGTLCSPDSTSVCVQGKCIKAGCDGNLGSKKRFDKCGVCGGDNKSCKKVTGGSAAADYKDDDDK
Take B4: in data set [2], the “cleavage at the aggrecanase site (western blot)” value is “the recombinant aggrecan G1G2 and the natural type aggrecan are cleaved off at the site between Glu373-Ala374 ... by MDTS6Cys”; the “degradation of natural type aggrecan (neoepitope western blot)” value is “a band of 80 to 90 KDa was detected in the case of MDTS6Cys in addition to a band of about 150 KDa”. For the same protein, in data set [1], the “aggrecanase activity” value is reported as “the aggrecanase activity was detected in the culture supernatant in which MDTS6Cys was expressed”; the “cleavage at the aggrecanase site (western blot)” value was “the recombinant aggrecan G1G2 and the natural type aggrecan are cleaved off at the site between Glu373-Ala374 ... by MDTS6Cys”.

(Values after patent US20040142445.)
